B1: J-11 (antibody, human IgG4 S228P, kappa, V domains shown)
VH: QVQLQQSGAELMKPGASVKLSCKATGYILTGYWIEWVKQRPGHGLEWIGEILPGSGSTNYNENFKGKATFTADTSSNTAYMQLSSLTTEDSAIYYCARAVLGYFDYWGQGTTLTVSS
VL: DIVMTQSHKFMSTSVGDRVSITCKASQDVSTAVAWYQQKPGQSPKLLIYWASTRHTGVPDRFTGSGSGTDYTLTISSVQAEDLALYYCHQHYSTYTFGGGTKLEIKR
notes: Human IgG4 chimera of murine origin; also called J-11.h
B2: J-17 (antibody, human IgG4 S228P, kappa, V domains shown)
VH: QIQLVQSGPELKKPGETVKISCKASGYTFTTYGLSWVKQTPGKGLKWMGWINTYSGVPTYTDDFKGRFAFSLETSASTAYLQINNLKNEDTATYFCARPYDFDQVGFAYWGQGTLVTVSA
VL: SIVMTQTPKFLLVSAGDRVSITCKASQTVSSDVAWYQQKAGQSPKLLIYYASNRYTGVPDRFTGSGYGTDFTFTISTVQAEDLAVYFCQQDYSSPFTFGGGSKLEIKR
notes: Human IgG4 chimera of murine origin; also called J-17.h

Assays:
[1] = molecular target: T1, human LILRB2 expressed on cells (human, UniProt Q8N423 22-597); test: flow cytometry, human whole blood, monocytes
T1 construct: CHO-s cells over-expressing full-length human LILRB2, or primary human macrophages and dendritic cells; also called hLILRB2-CHO-s; hLILRB2+ CHO-s
T1 sequence (Q8N423 other isoform, or with tags, fused parts or gaps limits assumed): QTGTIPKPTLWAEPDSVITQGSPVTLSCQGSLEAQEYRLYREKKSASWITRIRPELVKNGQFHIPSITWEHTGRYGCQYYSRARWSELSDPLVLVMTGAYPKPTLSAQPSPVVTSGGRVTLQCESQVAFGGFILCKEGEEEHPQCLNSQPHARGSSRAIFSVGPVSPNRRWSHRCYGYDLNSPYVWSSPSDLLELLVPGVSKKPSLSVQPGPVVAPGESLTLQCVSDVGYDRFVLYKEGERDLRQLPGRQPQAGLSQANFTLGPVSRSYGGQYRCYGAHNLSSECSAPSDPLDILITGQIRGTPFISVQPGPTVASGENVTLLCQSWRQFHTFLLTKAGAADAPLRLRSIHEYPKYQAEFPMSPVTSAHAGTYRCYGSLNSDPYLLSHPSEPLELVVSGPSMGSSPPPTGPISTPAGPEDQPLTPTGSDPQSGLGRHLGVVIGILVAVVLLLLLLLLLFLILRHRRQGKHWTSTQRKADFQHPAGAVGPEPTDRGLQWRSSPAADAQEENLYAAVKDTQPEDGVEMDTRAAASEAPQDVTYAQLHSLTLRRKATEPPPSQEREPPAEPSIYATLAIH

[2] = molecular target: T2, Rhesus Monocytes / Rhesus Neutrophils (Macaca mulatta); test: flow cytometry, rhesus whole blood, neutrophils
T2 construct: cell surface, primary blood cells; also called LILRB2+ populations in rhesus whole blood

human LILRB1 = molecular target: T3, human LILRB1 (human, UniProt Q8NHL6 24-650); test: flow cytometry, LILRB1 CHOs
T3 construct: Over-expressed on CHO-s cells; also called hLILRB1
T3 sequence (Q8NHL6 24-650 limits assumed): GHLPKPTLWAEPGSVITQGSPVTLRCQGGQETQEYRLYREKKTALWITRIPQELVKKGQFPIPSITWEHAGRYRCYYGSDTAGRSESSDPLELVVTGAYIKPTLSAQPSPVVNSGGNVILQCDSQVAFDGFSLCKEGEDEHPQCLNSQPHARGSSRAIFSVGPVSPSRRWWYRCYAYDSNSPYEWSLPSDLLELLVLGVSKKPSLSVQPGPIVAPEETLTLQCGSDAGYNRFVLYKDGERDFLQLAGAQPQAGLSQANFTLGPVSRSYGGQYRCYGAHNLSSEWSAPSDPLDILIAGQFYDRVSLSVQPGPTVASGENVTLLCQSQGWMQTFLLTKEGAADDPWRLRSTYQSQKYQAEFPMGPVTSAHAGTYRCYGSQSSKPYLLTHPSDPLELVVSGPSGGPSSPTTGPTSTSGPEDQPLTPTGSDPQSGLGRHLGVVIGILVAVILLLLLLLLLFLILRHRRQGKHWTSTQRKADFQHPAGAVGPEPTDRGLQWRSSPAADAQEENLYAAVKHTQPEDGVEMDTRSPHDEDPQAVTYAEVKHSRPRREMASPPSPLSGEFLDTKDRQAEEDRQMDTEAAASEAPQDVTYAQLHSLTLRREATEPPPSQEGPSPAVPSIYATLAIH

[3] = molecular target: T4, Cyno Monocytes / Cyno Neutrophils (Macaca fascicularis); test: flow cytometry, cyno whole blood, neutrophils
T4 construct: cell surface, primary blood cells; also called LILRB2+ populations in cyno whole blood

human LILRA2 = molecular target: T5, human LILRA2 (human, UniProt Q8N149 24-483); test: flow cytometry, LILRA2 CHOs
T5 construct: Over-expressed on CHO-s cells; also called hLILRA2
T5 sequence (Q8N149 24-483 S135L limits assumed): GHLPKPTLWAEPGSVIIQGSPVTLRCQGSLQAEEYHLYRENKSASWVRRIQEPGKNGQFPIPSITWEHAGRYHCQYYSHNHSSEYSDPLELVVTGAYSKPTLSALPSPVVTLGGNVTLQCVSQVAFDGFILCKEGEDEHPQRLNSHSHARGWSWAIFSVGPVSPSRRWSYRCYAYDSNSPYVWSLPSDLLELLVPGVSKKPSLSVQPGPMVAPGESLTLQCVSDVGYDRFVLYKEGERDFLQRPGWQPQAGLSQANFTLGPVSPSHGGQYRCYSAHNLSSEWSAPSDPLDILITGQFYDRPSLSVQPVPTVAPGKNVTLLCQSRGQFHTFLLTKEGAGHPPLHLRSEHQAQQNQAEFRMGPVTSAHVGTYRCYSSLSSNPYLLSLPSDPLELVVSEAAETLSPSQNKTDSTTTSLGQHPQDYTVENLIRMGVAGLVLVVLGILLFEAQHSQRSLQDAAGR

human LILRB2-His = human LILRB2-His (human, UniProt Q8N423 22-460); test: SPR, Sierra Sensors MASS-2; antibody captured on anti-human Fc, LILRB2-His 65 to 0.27 nM, 1:1 Langmuir fit
Chain of human LILRB2-His (Q8N423 other isoform, or with tags, fused parts or gaps): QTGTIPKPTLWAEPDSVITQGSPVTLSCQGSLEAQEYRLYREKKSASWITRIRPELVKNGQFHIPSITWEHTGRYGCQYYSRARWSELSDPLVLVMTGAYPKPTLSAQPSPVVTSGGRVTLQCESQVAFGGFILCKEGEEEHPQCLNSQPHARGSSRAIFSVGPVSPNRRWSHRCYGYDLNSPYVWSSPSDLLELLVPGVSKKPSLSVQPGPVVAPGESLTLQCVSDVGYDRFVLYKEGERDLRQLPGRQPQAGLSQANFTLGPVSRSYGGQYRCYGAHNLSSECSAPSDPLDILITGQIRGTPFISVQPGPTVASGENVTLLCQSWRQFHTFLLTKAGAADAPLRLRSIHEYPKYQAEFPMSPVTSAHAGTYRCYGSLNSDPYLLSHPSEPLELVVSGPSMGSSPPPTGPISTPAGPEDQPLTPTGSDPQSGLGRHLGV
Experimental: Using a Mass-2 (Sierra Sensors) high capacity amine chip preimmobilized with AffiniPure Goat Anti-Human IgG, Fcγ Fragment Specific antibody, humanized antibodies were captured on the anti-human surface and then binding to human LILRB2-His was measured by flowing six different concentrations from 65 to 0.27 nM of the analyte over the antibody surface. The anti-LILRB2 surface was removed (10 mM Glycine, pH 2.0) and recaptured between all concentrations or buffer only cycles. The data was analyzed using the Sierra Analyzer software (version 3.1.14). All curves were double subtracted and fit to a 1:1 Langmuir Fit.

[4] = molecular target: T2, Rhesus Monocytes / Rhesus Neutrophils; test: flow cytometry, rhesus whole blood, monocytes
human LILRA3 = molecular target: T6, human LILRA3 (human, UniProt Q8N6C8 24-439); test: flow cytometry, LILRA3 CHOs
T6 construct: Over-expressed on CHO-s cells; also called hLILRA3
T6 sequence (Q8N6C8 24-439 limits assumed): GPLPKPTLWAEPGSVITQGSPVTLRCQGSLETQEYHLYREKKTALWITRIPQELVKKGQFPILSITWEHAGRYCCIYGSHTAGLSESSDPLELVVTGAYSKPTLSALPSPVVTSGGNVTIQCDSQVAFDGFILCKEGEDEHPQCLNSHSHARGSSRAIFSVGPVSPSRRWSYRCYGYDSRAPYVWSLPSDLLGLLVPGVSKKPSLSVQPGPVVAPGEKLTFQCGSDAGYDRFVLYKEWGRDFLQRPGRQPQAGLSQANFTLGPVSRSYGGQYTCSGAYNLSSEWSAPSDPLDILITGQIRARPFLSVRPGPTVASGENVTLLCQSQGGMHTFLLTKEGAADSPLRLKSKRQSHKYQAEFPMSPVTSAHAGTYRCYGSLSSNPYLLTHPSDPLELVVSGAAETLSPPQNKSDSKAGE

human LILRB5 = molecular target: T7, human LILRB5 (human, UniProt O75023 24-590); test: flow cytometry, LILRB5 CHOs
T7 construct: Over-expressed on CHO-s cells; also called hLILRB5
T7 sequence (O75023 24-590 P542R limits assumed): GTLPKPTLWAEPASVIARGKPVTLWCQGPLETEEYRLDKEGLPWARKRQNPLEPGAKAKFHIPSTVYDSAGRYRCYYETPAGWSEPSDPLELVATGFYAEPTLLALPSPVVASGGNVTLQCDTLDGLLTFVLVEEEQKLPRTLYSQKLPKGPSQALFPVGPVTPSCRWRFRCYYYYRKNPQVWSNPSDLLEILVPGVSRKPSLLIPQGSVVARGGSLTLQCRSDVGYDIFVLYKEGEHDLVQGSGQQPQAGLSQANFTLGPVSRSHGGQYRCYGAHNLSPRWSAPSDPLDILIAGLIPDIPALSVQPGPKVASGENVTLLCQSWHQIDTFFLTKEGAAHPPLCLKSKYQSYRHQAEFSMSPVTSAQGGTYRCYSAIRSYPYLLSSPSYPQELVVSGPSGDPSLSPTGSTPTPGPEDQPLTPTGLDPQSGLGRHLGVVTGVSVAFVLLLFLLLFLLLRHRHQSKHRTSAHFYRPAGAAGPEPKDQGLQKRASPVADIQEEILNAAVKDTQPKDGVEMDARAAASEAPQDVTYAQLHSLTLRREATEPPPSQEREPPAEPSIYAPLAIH

human LILRA6 = molecular target: T8, human LILRA6 (human, UniProt Q6PI73 24-481); test: flow cytometry, LILRA6 CHOs
T8 construct: Over-expressed on CHO-s cells; also called hLILRA6
T8 sequence (Q6PI73 24-481 limits assumed): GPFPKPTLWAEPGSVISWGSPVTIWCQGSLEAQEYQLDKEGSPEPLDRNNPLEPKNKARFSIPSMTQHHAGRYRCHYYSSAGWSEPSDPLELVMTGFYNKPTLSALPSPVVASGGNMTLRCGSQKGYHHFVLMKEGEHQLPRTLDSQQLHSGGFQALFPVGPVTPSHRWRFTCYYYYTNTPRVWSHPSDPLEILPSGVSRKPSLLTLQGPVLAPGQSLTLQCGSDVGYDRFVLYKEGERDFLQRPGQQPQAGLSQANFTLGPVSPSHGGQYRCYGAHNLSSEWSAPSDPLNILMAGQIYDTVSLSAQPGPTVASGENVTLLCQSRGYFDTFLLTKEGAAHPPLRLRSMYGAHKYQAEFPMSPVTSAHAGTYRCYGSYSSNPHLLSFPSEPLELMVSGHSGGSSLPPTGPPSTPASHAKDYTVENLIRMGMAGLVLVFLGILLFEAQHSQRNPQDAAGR

human LILRA5 = molecular target: T9, human LILRA5 (human, UniProt A6NI73 42-299); test: flow cytometry, LILRA5 CHOs
T9 construct: Over-expressed on CHO-s cells; also called hLILRA5
T9 sequence (A6NI73 42-299 limits assumed): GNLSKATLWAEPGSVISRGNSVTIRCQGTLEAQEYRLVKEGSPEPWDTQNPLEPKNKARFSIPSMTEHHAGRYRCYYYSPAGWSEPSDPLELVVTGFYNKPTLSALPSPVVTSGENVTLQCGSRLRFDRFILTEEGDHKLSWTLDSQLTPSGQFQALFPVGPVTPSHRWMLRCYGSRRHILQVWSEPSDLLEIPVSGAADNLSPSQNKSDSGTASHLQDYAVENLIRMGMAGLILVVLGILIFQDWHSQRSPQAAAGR

[5] = molecular target: T1, human LILRB2 expressed on cells; test: flow cytometry, human whole blood, neutrophils
human LILRA4 = molecular target: T10, human LILRA4 (human, UniProt P59901 24-499); test: flow cytometry, LILRA4 CHOs
T10 construct: Over-expressed on CHO-s cells; also called hLILRA4
T10 sequence (P59901 other isoform, or with tags, fused parts or gaps limits assumed): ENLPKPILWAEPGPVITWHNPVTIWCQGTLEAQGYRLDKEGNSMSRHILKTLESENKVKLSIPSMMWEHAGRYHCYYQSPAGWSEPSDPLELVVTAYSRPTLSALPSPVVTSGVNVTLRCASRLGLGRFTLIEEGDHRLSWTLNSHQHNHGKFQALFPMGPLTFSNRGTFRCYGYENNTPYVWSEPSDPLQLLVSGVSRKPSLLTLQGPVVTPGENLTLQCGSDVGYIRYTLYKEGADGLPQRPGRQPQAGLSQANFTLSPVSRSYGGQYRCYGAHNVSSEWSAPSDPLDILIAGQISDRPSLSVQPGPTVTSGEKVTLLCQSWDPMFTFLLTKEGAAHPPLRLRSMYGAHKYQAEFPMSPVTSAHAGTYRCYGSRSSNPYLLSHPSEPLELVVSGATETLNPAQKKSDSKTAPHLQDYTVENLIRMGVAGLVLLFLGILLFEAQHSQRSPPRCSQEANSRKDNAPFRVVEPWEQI

human LILRB4 = molecular target: T11, human LILRB4 (human, UniProt Q8NHJ6 22-448); test: flow cytometry, LILRB4 CHOs
T11 construct: Over-expressed on CHO-s cells; also called hLILRB4

[6] = molecular target: T4, Cyno Monocytes / Cyno Neutrophils; test: flow cytometry, cyno whole blood, monocytes
[7] = molecular target: T1, human LILRB2 expressed on cells; test: flow cytometry, LILRB2 CHOs
[8] = molecular target: T1, human LILRB2 expressed on cells; test: blocking of HLA-G tetramer on LILRB2 CHOs, flow cytometry, mAb 10 ug/mL
Experimental: (§1) In the secondary screen, 1×10⁵ CHO-s cells over-expressing human LILRB2 were plated in 96-well round-bottom tissue culture-treated plate and washed twice with 1×DPBS (Gibco) and incubated with 10 μg/mL primary antibody (anti-LILRB2 mAbs or control) prepared in 50 μL FACS buffer (1×DPBS containing 2% HI-FBS (Sigma)+0.05% Sodium Azide). After incubation with mAbs for 30 minutes at 4° C., cells were washed twice in FACS buffer and then resuspended in 50 μL of FACS buffer containing 5 μg/mL APC-conjugated HLA-A2 or HLA-G tetramer (Fred Hutch). Cells were incubated protected from light for 30-60 minutes at 4° C. After incubation with tetramer, cells were washed in FACS buffer and re-suspended in fix buffer (1.5% paraformaldehyde diluted in 1×DPBS). Samples were analyzed using the Celesta flow cytometer analyzer (BD Biosciences). Data represent percent tetramer blocked by mAbs relative to tetramer alone, calculated according to the following equation: […]

[9] = molecular target: T1, human LILRB2 expressed on cells; test: cell-based or functional assay
human LILRB3 = molecular target: T12, human LILRB3 (human, UniProt O75022 24-631); test: flow cytometry, LILRB3 CHOs
T12 construct: Over-expressed on CHO-s cells; also called hLILRB3

human LILRA1 = molecular target: T13, human LILRA1 (human, UniProt O75019 17-489); test: flow cytometry, LILRA1 CHOs
T13 construct: Over-expressed on CHO-s cells; also called hLILRA1
T13 sequence (O75019 17-489 limits assumed): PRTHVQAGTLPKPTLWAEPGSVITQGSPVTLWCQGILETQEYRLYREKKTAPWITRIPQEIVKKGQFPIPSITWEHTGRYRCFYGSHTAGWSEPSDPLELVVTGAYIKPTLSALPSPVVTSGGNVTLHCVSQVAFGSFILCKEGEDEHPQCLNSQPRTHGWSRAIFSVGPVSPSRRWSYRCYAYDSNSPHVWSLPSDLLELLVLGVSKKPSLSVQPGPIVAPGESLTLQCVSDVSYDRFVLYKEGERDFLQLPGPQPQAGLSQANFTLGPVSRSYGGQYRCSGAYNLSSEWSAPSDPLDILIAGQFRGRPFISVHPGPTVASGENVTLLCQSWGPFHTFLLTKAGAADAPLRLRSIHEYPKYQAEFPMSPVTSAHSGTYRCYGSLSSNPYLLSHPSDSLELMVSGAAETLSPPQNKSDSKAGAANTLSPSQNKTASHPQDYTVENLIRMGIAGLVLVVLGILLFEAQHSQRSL

[10] = molecular target: T1, human LILRB2 expressed on cells; test: blocking of HLA-A2 tetramer on LILRB2 CHOs, flow cytometry, mAb 10 ug/mL
Experimental: as §1

Row | Binder | Human Monocytes binding (fold over iso) [1] [fold over iso] | Rhesus Neutrophils binding (fold over iso) [2] [fold over iso] | binding (fold over iso) (human LILRB1) | binding result (human LILRB1) | Cyno Neutrophils binding (fold over iso) [3] [fold over iso] | binding (fold over iso) (human LILRA2) | binding result (human LILRA2) | Kd (human LILRB2-His) [nM] | kon (human LILRB2-His) [M⁻¹ s⁻¹] | Rhesus Monocytes binding (fold over iso) [4] [fold over iso] | binding (fold over iso) (human LILRA3) | binding result (human LILRA3) | binding (fold over iso) (human LILRB5) | binding result (human LILRB5) | binding (fold over iso) (human LILRA6) | binding result (human LILRA6) | binding (fold over iso) (human LILRA5) | binding result (human LILRA5) | Human Neutrophils binding (fold over iso) [5] [fold over iso] | binding (fold over iso) (human LILRA4) | other results
1 | B1 | 8.54 | 0.64 | 1.07 | no binding | 0.94 | -2.52 | no binding | 2.47 | 370000 | 0.88 | 1.02 | no binding | 1.22 | no binding | 1 | no binding | 1.34 | no binding | 2.89 | -1.27 | koff (human LILRB2-His): 0.000913 s⁻¹; binding result (human LILRA4): no binding; binding (fold over iso) (human LILRB4): 1.03 fold over iso; binding result (human LILRB4): no binding; Cyno Monocytes binding (fold over iso) [6]: 0.71 fold over iso; binding (fold over iso) [7]: 3.49 fold over iso; HLA-G:LILRB2 CHOs blocking (% blocked) [8]: 99.9 % blocked; CCL2 production (fold over LPS alone) [9]: 0.96 fold over LPS alone; IL-6 production (fold over LPS alone) [9]: 3.06 fold over LPS alone; IL-10 production (fold over LPS alone) [9]: 0.81 fold over LPS alone; TNFa production (fold over LPS alone) [9]: 7.61 fold over LPS alone; binding (fold over iso) (human LILRB3): 1.09 fold over iso; binding result (human LILRB3): no binding; binding (fold over iso) (human LILRA1): -1.63 fold over iso; binding result (human LILRA1): no binding; HLA-A2:LILRB2 CHOs blocking (% blocked) [10]: 94.4 % blocked
2 | B2 | 11.3 | 1.44 | 1.05 | no binding | 0.87 | -1.05 | no binding | 2.85 | 1.56e+06 | 1.41 | 1.35 | no binding | 1.03 | no binding | 0.94 | no binding | 0.82 | no binding | 4.55 | -36.5 | binding result (human LILRA4): no binding; binding (fold over iso) (human LILRB4): 1 fold over iso; binding result (human LILRB4): no binding; Cyno Monocytes binding (fold over iso) [6]: 0.92 fold over iso; binding (fold over iso) [7]: 3.68 fold over iso; HLA-G:LILRB2 CHOs blocking (% blocked) [8]: 96.6 % blocked; CCL2 production (fold over LPS alone) [9]: 1.85 fold over LPS alone; IL-6 production (fold over LPS alone) [9]: 2.57 fold over LPS alone; IL-10 production (fold over LPS alone) [9]: 0.89 fold over LPS alone; TNFa production (fold over LPS alone) [9]: 8.12 fold over LPS alone; binding (fold over iso) (human LILRB3): 0.99 fold over iso; binding result (human LILRB3): no binding; HLA-A2:LILRB2 CHOs blocking (% blocked) [10]: 93.4 % blocked

From patent US20200339690A1 (JOUNCE THERAPEUTICS, published 2020)
